Among the data in a protein production outcome set (Wang et al. 2014) are protein production values, retold here.
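Further: failed if final PepcDB status was selected cloned or expressed and not failed if soluble or beyond.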

A short description of this series: label from the status in PepcDB records.
For “MSDFGILSLLPPLVAIVLAIWTKRVVFALFSGVWIGGVMAANWNPITGTIKTFEWIIQNVTNSWNATILVFDFLIGAGVGLIYKSGGVHAVANAITKRIKTSRDASLLGWLLGVLIFFDDYTNTIIVGNTMRPITDKMRVSREMLAYIDDSTAAPVAGIAIVSTWIGYELGLIKEAFEKLHITMGEYYAWLHSVPYRFYSIFAIILVFIVAYTHRHYGAMLKAEMRARTTGKVVRDDAKPLMATESDLGLPLTEKGSVHFFIWPVLSLIIVTLLGLYYTGKAACEGPCGAMDILSNADSATSLLWGSFAMVAVALTLVLATKTMTVEETESAIIQGMKQMMMATVILVLAWSIKSATEAVGTAEYVVGLAQRANVPGGIIPLIIFLTAMFISFTTGTSWGTFGILMPIAIPLAYKLAPNDPQVLFASIGAVFAGGIFGDHCSPISDTTIMSSMFSGSDHIDHVTTQIPYAVTAASVGIVLYILFALGIKSPVILLPVGLVLLIAAWYFLSEWYGKKYGVPHGRVPIYPTEISE”, the protein production result is on record as “failed”. Consider “MSDHPFSIQANLYLQLRHFIRLGMSKAEAIKLITYNNAKILGIEDKLGSLEKGKWASLVVWNGDPFNLENYPTHVFAEGELIHEANLLEHHHHHH”, for which the protein production entry was “failed”. With “MSDISKLIGAIVGSDDPVIIEFVLNIINKSGNLQEFIRNIQKLDAGISYEDSIKMYNAFLGKQEEEKVRNKVKSSPLSQKINQVLKDDVNLDDPVVTEFVLSILNKSKSITEFQEQLNLMQSGLDNETIFKIYQIASPPVMKEEVSVLPSTKIPAKIEAKIEEEVQKIESLDPSPVLHKVYEGKVRNITTFGCFVQIFGTRMKNCDGLVHISEMSDQRTLDPHDVVRQGQHIFVEVIKIQNNGKISLSMKNIDQHSGEIRKRNTESVEDRGRSNDAHTSRNMKNKIKRRALTSPERWEIRQLIASGAASIDDYPELKDEIPINTSYLTAKRDDGSIVNGNTEKVDSKLEEQQRDETDEIDVELNTDDGPKFLKDQQVKGAKKYEMPKITKVPRGFMNRSAINGSNAIRDHREEKLRKKREIEQQIRKQQSFDDPTKNKKDSRNEIQMLKNQLIVTEWEKNRMNESISYGKRTSLPISAQRQTLPVYAMRSELIQAVRDNQFLVIVGETGSGKTTQITQYLDEEGFSNYGMIGCTQPRRVAAVSVAKRVAEEVGCKVGHDVGYTIRFEDVTGPDTRIKYMTDGMLQREALLDPEMSKYSVIMLDEAHERTVATDVLFALLKKAAIKRPELKVIVTSATLNSAKFSEYFLNCPIINIPGKTFPVEVLYSQTPQMDYIEAALDCVIDIHINEGPGDILVFLTGQEEIDSCCEILYDRVKTLGDSIGELLILPVYSALPSEIQSKIFEPTPKGSRKVVFATNIAETSITIDGIYYVVDPGFAKINIYNARAGIEQLIVSPISQAQANQRKGRAGRTGPGKCYRLYTESAFYNEMLENTVPEIQRQNLSHTILMLKAMGINDLLKFDFMDPPPKNLMLNALTELYHLQSLDDEGKLTNLGKEMSLFPMDPTLSRSLLSSVDNQCSDEIVTIISMLSVQNVFYRPKDRQLEADSKKAKFHHPYGDHLTLLNVYTRWQQANYSEQYCKTNFLHFRHLKRARDVKSQISMIFKKIGLKLISCHSDPDLIRKTFVSGFFMNAAKRDSQVGYKTINGGTEVGIHPSSSLYGKEYEYVMYHSIVLTSREYMSQVTSIEPQWLLEVAPHFYKAGDAESQSRKKAKIIPLHNKFAKDQNSWRLSSIRQSRERALGIKR” the entry was “failed”; with “MSDKFNQFINRVLSHEGGYANHPKDPGGETNWGITKRTAQANGYNGSMRAMTREQAISIYRKAFWERYRADQMPEAVAFQFFDACVNHGYGNAARMLQRAAGVPDDGVIGAVSLKAINSLPENDLLLRFNAERLVFYTKLGTFTSFGKGWVRRVAQNLIHASADNTD”, “not failed”; with “MSDKLFSIVTISFNQAQFLREAVESVLAQKGGDIEYIVVDPGSTDGSREILAEYRSAIDHLILEADHGPGDGLNKGFARANGRYGYFLNSDDFLLPGAIDIMRTLWQRHKNTDVLLCGAWMVDENRRPQRELRPSPVTLEKLLDGEAKIVQQGMSFRMDLFRKVGGFNVGNRTCWDYELLCDFLAAGAAVTQSEARLAAFRIHSASISGGIGGELATKRYLADLDSVYERLTGQKKKPEQRRRAVRLSKRLGSPSHVLLRMRELLAPWTLELRWQADHERKSRRLEHHHHHH”, “failed”. On to “MSDKPTIEQLLNNVSIESLNDMQEDSLAANAKASDVILLSPTGSGKTLGFLLPVFQQLSVSSNSIQALVLVPSRELALQIESVFKSLKTGFKVTCCYGGHPMDVEENNLAQSPALLIGTPGRIVDHINRRNINLDDVKTLVLDEFDKSLEMGFQEDMAIIIGRLTGIKKRILTSATQAIKIPDFTGMQSPVTLNYITGQASGLSVKTVLSDTKDKFDTLLRLLCQIGNESVIVFCNQRDEVENVCAYLTEHGIINNNFHGGLEQRYRESTLTKFRNGSTNVLVTTDLAARGLDIPDVKHVIHYQMPHKIDAFTHRNGRTARMGSTGNAYMLLHKDVLLPDYITSKPDILKLSDQKVKPLLPQWETLFISAGKKDKINKIDIVGFLSKKGLLEKDELGLIEVKDQFAYAAVKRNKVESVIKLVKEEKIKGRKVKIEVARETPKFEAE”, for which the protein production result is on record as “failed”. With “MSDKQRVREQKHAWIYLFNLGFYILPMVLFPYQVWEIAVMVAALLVFIGLYYCCYSVPRQQMLWPILGMYIIACAVTPLNPGSIALFSYAGFFVGFAYNWRVALAAVAGIILTLATFHFGPGTSWDLFLPYGIVIVGTVSIFGRVERLRQQHAEEQERDAEEIERLATSVERERIARDLHDILGHTLSSIILKSDLAKAQLSKQRYDEASEQLVELSEIARESLSQVRQSVSGYKHGGLQLELRRLEQRLTDGGFSTRITGTPPIIDERRETSLVLAITELVTNIIRHSNGQQCLIHFDETANTYCIKVVDNGRCHDVSVGNGLSGVELRIQELGGSMSISTNKGCEVALFLPKLAEQQP” the entry was “failed”; with “MSDKRDARFYQEVLDICLTAGRLMIEGGSEMYRVEDTMLRIARNADINDPRVFATPTCVFMSLDGGKLSQMKQIRDRNINLELVDRVNELSREFATKKIDLSELKNRIIEVANAPSFPMWMQIIGAAVLSATLMVLFMDDYDWVDFPGAALVGAIGFWAYYEFKKYTKVRFLSELIAAMIMGVLALGLNYLYPKMIIDNILIGALMTLVPGLAMTNALRDLFMGDLLSGIVRMCEAILSALALGGGVGLVLKFVGG”, “failed”; with “MSDLGDFADHGRDDDERGGDDDPAPADDDFDRPTLEATGSDDGLGALAVSEGLRIHEDGQETALKAYVTAGNRAAVRLGTYLVAPYPGGETLFCKITGLEYVQAFESDDATEIHARRAMRSDGVDEADYKFLAELDPVAVLSDEGDDITRRMPDRVPKPETVVRAADDAAEIKAGLKIPADGVFLGHLSVGGEKVRTAADPPTIDYRVKDGYEAGDPLVFRHTLIAGGTGSGKTHAAKNVLRQYLHEDRRYPVDSGGPERRMAVVQFDPQDEYAQMHDDNPDADASDRRQWETQGLAYGGHDDTVAFVPTVGSASYAADHHAAEQVAFTVPFSMVRDNPWLVASSGLNDNQYGALHLLLDRFFGQYGESGTYREFCAFLDDPALKEELDESGRVHEATYEAVLRRVNGMPNGLFDQDARSITALVEDREFVQPGRLSVVPTYHISNSRAAETVVLAVSSLLVDQKLSNDPRYDAIKRTPLLVGMDEAHNFLSDADSVQARKVVGKFTEAAKQGRKERLGLFLITQDPQDIAGPVFKQVNTTVVLNLGDEDAIQAVNIPATLQSKVPYMNTGQMVVYSPDNSEPVEVQGLATCVTRHGRD”, “failed”. For “MSDLINIQKKLLPDVLMIMQKRYQILRSIYFSEPVGRRTLAGMLGMSERVLRGEVEFLKAQGLVEIASSGMTVTKEGLVVFRDLENVMNQLSGLHSMEEQLAKKLQIKKCLVVQGDSDDTPWVREEMGRVAVEQLDMALTEKRNIVAVMGGSTMATVAEMMTTDFAKGRELLFVPGRGGIGEDLDNQANTICDKMATKTNTKHRVLYVPEQLGEEAYRSLLKEPAIQEGLRLVQSANAIILGIGDALAMAKRRHTGEDVLEKIIRRKAVGEAFGYYFDEQGEVVHKVPTFGLQFEDLAQIPHIIAVAGGTSKAKAIKSYMKSAPKNTILITDEGAAKSLLKGSNTLLK”, the protein production entry is reported as “failed”. For “MSDLQKLQRFSTCDISDGLLNVYNIPTGGYFPNLTAISPPQNSSIVGTAYTVLFAPIDDPRPAVNYIDSVPPNSILVLALEPHLQSQFHPFIKITQAMYGGLMSTRAQYLKSNGTVVFGRIRDVDEHRTLNHPVFAYGVGSCAPKAVVKAVGTNVQLKILTSDGVTQTICPGDYIAGDNNGIVRIPVQETDISKLVTYIEKSIEVDLLVSEDIKNGIPAKQAQNDRRSVLKKYI”, the protein production result is “not failed”.

On to “MSDQVPKPHRHHIWRITRRTLSKSWDDSIFSESAQAAFWSALSLPPLLLGMLGSLAYVAPLFGPDTLPAIEKSALSTAHSFFSPSVVNEIIEPTIGDITNNARGEVASLGFLISLWAGSSAISAFVDAVVEAHDQTPLRHPVRQRFFALFLYVVMLVFLVATAPVMVVGPRKVSEHIPESLANLLRYGYYPALILGLTVGVILLYRVALPVPLPTHRLVLGAVLAIAVFLIATLGLRVYLAWITRTGYTYGALATPIAFLLFAFFGGFAIMLGAELNAAVQEEWPAPATHAHRLGNWLKARIGVGTTTYSSTAQHSAVAAEPPS”, for which the protein production result was “failed”. Turning to “MSDSIVGIPREDHQTFLYNPFTSQRYELPPLTIEDPHLKSVLRYGVLTGDPREDNTYACLVADSLHANLMAIGNTHPPSLHLYYVAKRNGEWDQNWSVTRIPTHNLPVVGSTIDSISPSADKISIIGWGHSFDFTFQSQDWNVTNINYTMEWNPFHGQSFDQIKHRLQIDPQTLDIIGTKTDRERVKNRIWFVINQIISHIDGVWVEVRA”, the protein production result is “failed”. In the case of “MSDSKEITKVIVTMVVISAVAAALLALTYTPTQAQLKLLQAEQQKEAMKEILPQAADFEPVTGSEVDDDGNPVVLYYKGVDSSGNVVGYVVERNQVGAQGMIQLLAGISSDFSTITGFQVMKHSETPGLGALITTPEFQGQFVDLPVADTSLTKNGGQVDAISGATISSQAVVDALHSAVDYVSAQEG” it was “failed”; in that of “MSDVIEGRLKELGFTLPVAAAPAANYVPFTISGNLLYVSGQLPMESGKIAVTGLVGRDVDVASAQRAAELCAVNILAQVKAALNGDLSKIRRVIKLNGFVASVPEFVEQHLVINGASNLIATVLGEPGRHARAAVGMASLPFNASVEIDAIVEIDV”, “not failed”; in that of “MSDVISESALKSAKTEKNQKIYWDELKEGEQFSYGHYQVSEHENIDFAKRYDPMEFHVDPEKAKLSPIGALCASGIHTLGIMQRLTFDNIYTNWHIVAGRELRKCQFRLPVFVDDCLTVNMTIAKLSVDTRSDRGNAELTFDVKNAKGKTVLEVEGEIVLQRFPSI”, “failed”. In the case of “MSDVTQQKKRKRSKGEVNPSKPTVDEEITDPSSNEDEQLEVSDEEDALESEEEFEGENPADKRRRLAKQYLENLKSEANDILTDNRNAEEKDLNNLKERTIDEYNNFDAGDLDKDIIASRLKEDVAEQQGRVFRYFGDKLLISEAKQSFTRVGENNLTCISCFQPVLNKYTFEESSNGDKNKGRLFAYTVSKDLQLTKYDITDFSKRPKKLKYAKGGAKYIPTSKHEYENTTEGHYDEILTVAASPDGKYVVTGGRDRKLIVWSTESLSPVKVIPTKDRRGEVLSLAFRKNSDQLYASCADFKIRTYSINQFSQLEILYGHHDIVEDISALAMERCVTVGARDRTAMLWKIPDETRLTFRGGDEPQKLLRRWMKENAKEGEDGEVKYPDESEAPLFFCEGSIDVVSMVDDFHFITGSDNGNICLWSLAKKKPIFTERIAHGILPEPSFNDISGETDEELRKRQLQGKKLLQPFWITSLYAIPYSNVFISGSWSGSLKVWKISDNLRSFELLGELSGAKGVVTKIQVVESGKHGKEKFRILASIAKEHRLGRWIANVSGARNGIYSAVIDQTGF” it was “failed”. With “MSDWADLMNDLNKLQHSDAVTTAWQFTEQVPHGRDLGMQVVSVDQGQVCMRLTPQSWMFAHKDTKEICTSVLYSLADSAGGLAVFAGALELMPIATLDLRMDYLRPAIGDRALSAVATCRHLSDDVAFIHCDILSEGNRELLATANATFMRNTQGQQLHAGGPGKESA” the entry was “failed”.
